From the supplement of paper PMC10065799, “High-throughput profiling of sequence recognition by tyrosine kinases and SH2 domains using bacterial peptide display” (eLife, 2023)

Assays:
c-Src = test: phosphorylation enrichment, bacterial display (enrichment ratio); higher = better substrate or ligand; peptides without Tyr show the background
c-Abl (mouse) = test: as above
AncSZ = test: as above
FGFR1 = FGFR1 (UniProt P11362); test: as above
MERTK = MERTK (UniProt Q12866); test: as above
Fyn = Fyn (UniProt P06241); test: as above
Fyn, sequence (P06241 whole entry, looked up): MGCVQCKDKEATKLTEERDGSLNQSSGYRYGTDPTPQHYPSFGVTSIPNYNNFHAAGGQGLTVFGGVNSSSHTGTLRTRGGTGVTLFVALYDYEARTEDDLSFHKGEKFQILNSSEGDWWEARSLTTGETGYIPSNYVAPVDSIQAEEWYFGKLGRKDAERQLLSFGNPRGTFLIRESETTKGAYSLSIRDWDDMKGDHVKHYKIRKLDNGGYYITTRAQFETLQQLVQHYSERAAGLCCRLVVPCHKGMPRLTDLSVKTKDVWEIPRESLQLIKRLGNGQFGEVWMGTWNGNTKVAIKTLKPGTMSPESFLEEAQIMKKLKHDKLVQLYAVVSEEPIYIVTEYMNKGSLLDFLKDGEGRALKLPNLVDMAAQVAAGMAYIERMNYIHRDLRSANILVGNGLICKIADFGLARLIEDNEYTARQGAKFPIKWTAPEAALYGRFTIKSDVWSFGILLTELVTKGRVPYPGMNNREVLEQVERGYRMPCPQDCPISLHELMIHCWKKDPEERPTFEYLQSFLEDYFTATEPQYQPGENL

Jak2 = Jak2 (UniProt O60674); test: as above
Jak2, sequence (O60674 whole entry, looked up): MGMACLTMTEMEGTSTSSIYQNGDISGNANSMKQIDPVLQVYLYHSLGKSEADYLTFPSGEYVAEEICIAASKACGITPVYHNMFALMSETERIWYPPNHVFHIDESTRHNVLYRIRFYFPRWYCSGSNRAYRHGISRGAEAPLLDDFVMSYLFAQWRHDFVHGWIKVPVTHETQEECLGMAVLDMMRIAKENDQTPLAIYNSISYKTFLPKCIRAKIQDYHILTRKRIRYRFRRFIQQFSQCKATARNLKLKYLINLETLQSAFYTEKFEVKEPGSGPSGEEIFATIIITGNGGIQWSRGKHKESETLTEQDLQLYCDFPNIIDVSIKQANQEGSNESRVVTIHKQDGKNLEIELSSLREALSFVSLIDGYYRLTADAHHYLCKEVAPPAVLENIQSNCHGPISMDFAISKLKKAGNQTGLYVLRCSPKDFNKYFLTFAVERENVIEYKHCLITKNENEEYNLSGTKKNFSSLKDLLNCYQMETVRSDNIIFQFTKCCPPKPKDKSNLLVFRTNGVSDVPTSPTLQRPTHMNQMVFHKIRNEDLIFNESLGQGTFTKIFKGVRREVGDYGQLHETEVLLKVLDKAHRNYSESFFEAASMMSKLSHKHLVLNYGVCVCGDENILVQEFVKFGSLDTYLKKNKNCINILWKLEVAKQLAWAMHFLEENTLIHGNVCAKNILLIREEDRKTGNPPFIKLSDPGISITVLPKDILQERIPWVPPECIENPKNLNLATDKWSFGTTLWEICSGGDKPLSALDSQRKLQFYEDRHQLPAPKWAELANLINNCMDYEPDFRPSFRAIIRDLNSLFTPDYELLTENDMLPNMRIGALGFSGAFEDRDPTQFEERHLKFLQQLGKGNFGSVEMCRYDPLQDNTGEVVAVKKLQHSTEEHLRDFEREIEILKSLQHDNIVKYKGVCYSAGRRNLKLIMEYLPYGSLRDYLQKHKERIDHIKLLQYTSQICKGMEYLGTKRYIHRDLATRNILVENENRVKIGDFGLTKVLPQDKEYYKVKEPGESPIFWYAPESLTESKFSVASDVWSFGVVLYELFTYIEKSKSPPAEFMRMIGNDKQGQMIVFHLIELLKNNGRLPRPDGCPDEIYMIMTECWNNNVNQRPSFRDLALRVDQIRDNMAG

Fes = Fes (UniProt P07332); test: as above
Fer (mouse) = test: as above
FGFR3 = FGFR3 (UniProt P22607); test: as above
EPHB1 = EPHB1 (UniProt P54762); test: as above
EPHB1, sequence (P54762 whole entry, looked up): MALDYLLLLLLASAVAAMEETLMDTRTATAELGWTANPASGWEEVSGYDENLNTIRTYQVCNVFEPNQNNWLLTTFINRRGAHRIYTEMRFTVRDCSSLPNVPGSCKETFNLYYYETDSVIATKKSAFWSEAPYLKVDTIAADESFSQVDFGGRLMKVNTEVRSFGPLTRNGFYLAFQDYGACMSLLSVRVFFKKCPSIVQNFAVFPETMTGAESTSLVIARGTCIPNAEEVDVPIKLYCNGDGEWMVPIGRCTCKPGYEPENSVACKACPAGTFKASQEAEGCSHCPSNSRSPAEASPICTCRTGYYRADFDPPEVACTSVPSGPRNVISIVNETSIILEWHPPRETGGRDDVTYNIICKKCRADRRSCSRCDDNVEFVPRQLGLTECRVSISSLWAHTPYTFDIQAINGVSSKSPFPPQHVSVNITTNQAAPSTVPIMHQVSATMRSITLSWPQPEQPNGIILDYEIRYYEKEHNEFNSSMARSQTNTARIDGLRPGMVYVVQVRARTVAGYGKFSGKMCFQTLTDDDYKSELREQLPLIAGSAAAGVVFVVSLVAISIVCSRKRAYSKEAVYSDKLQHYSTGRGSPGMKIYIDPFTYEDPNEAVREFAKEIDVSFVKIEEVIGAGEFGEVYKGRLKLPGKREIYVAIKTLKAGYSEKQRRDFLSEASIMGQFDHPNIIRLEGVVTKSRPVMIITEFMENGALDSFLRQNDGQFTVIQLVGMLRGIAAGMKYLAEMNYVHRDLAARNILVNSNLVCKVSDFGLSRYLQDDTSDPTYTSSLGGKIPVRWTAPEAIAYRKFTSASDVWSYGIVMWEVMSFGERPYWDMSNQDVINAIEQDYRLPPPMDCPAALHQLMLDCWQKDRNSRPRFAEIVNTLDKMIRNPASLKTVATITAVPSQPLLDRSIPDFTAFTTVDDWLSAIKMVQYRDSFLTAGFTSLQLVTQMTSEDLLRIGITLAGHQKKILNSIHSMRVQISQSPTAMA

Hck = Hck (UniProt P08631); test: as above
Hck, sequence (P08631 whole entry, looked up): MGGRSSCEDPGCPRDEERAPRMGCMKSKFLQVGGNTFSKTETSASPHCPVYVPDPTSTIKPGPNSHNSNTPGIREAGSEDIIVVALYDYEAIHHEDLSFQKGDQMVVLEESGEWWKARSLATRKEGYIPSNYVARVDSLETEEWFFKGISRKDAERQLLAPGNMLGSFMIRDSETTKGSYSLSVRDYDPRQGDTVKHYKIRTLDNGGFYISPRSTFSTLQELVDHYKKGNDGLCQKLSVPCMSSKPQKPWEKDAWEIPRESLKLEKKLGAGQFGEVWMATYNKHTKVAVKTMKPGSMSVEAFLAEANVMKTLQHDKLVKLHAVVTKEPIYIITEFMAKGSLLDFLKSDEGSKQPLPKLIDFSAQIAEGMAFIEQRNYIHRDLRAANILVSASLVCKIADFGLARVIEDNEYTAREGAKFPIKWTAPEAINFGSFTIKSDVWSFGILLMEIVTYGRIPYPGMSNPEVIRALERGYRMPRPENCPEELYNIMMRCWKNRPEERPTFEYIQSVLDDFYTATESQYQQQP

EPHB2 = EPHB2 (UniProt P29323); test: as above
EPHB2, sequence (P29323 whole entry, looked up): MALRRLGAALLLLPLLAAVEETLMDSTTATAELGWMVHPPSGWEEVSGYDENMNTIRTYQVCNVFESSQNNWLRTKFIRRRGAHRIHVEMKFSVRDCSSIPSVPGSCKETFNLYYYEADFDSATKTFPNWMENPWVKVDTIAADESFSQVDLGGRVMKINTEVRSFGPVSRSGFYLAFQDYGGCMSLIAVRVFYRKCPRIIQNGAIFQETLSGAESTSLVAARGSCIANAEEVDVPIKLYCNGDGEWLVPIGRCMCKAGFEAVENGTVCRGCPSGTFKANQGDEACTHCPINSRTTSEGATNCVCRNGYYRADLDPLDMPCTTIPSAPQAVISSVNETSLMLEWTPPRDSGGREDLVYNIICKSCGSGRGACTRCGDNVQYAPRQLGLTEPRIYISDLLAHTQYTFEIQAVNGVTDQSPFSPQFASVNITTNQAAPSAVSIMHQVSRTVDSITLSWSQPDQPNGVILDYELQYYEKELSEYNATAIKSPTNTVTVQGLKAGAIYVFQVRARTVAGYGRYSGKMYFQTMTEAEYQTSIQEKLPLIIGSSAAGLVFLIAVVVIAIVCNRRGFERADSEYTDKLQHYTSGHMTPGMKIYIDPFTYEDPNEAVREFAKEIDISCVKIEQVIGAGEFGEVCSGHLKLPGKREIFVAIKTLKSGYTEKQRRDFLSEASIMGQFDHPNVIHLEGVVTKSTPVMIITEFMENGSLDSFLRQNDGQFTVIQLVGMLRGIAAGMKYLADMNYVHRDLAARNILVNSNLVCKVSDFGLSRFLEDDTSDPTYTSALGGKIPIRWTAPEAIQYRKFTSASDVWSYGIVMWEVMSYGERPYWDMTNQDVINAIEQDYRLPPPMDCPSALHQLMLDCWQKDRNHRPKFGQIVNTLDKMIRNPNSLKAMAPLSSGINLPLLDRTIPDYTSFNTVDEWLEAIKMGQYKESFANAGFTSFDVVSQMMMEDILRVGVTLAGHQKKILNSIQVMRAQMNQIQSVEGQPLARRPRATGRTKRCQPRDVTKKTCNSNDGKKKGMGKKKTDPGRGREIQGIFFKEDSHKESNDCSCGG

SHP2-C SH2 = test: SH2 binding enrichment of the phosphorylated peptide, bacterial display (enrichment ratio); higher = better substrate or ligand; peptides without Tyr show the background
c-Src SH2 = test: as above
Grb2 SH2 = Grb2 SH2 (UniProt P62993); test: as above
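Throughout, for SH2 binding enrichment of the phosphorylated peptide, bacterial display: peptide library displayed on the E. coli surface as eCPX fusions, selected cells deep-sequenced, score is each peptide's frequency after selection divided by its frequency in the input.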
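Throughout, for phosphorylation enrichment, bacterial display: 11-residue human phosphosite peptides and single-mutation variants displayed on the E. coli surface, counted by deep sequencing, each peptide's frequency after selection divided by its frequency in the unselected input library; frequency after pTyr selection over input frequency; kinase dosed for 20-30% of maximal phosphorylation in three min.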

FGFR1, sequence (P11362 whole entry, looked up): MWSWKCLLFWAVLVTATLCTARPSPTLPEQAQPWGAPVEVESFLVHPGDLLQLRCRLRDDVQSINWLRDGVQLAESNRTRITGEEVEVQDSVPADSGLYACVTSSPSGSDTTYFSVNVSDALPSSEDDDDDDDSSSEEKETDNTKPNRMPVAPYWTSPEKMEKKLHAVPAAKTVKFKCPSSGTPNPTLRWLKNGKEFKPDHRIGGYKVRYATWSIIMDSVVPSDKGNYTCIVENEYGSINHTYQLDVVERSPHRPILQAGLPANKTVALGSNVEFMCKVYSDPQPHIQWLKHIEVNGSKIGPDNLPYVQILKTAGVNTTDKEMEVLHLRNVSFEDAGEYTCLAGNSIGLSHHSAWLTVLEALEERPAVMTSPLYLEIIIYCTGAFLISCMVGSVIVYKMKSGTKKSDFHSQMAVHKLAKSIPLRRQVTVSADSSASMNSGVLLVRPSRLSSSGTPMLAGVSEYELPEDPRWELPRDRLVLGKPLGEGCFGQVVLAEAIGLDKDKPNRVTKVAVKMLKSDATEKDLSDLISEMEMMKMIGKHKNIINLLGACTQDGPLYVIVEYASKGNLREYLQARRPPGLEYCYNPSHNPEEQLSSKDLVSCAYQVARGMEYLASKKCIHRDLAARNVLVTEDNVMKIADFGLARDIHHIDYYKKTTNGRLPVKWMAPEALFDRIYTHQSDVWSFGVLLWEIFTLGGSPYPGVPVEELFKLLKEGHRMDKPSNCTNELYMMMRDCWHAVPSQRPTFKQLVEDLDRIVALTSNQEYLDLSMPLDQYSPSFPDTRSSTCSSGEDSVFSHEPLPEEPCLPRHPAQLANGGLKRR

Row | Sequence | SH2 binding enrichment (SHP2-C SH2) | SH2 binding enrichment (c-Src SH2) | SH2 binding enrichment (Grb2 SH2) | phosphorylation enrichment (c-Src) | phosphorylation enrichment (c-Abl (mouse)) | phosphorylation enrichment (AncSZ) | phosphorylation enrichment (FGFR1) | phosphorylation enrichment (MERTK) | phosphorylation enrichment (Fyn) | phosphorylation enrichment (Jak2) | phosphorylation enrichment (Fes) | phosphorylation enrichment (Fer (mouse)) | phosphorylation enrichment (FGFR3) | phosphorylation enrichment (EPHB1) | phosphorylation enrichment (Hck) | phosphorylation enrichment (EPHB2)
1 | KLFYIYTPGTT [SLC27A4_Y245_S247P] | 1.15 | 0.471 | 0.798 | 0.58 | 0.784 | 1.25 | 0.753 | 1.66 | 0.404 | 1.43 | 1.17 | 0.594 | 0.899 | 0.666 | 0.527 | 0.584
2 | KLIMECLPYGS [JAK2_Y931_Y931C] | 0.606 | 0.451 | 0.767 | 0.424 | 0.738 | 0.907 | 0.542 | 0.489 | 0.513 | 0.886 | 0.998 | 0.448 | 0.766 | 0.564 | 0.512 | 0.649
3 | KLKNAYEECLE [MYH7_Y1488_S1491C] | 0.755 | 2.71 | 1.08 | 0.502 | 0.799 | 1.15 | 0.508 | 0.432 | 0.438 | 0.984 | 1.16 | 0.615 | 0.739 | 0.501 | 0.642 | 0.554
4 | KLRMEYLSLMH [NCKIPSD_Y660] | 1.97 | 1.44 | 2.08 | 0.445 | 0.8 | 0.857 | 0.52 | 0.419 | 0.438 | 0.976 | 0.991 | 0.455 | 0.737 | 0.524 | 0.515 | 0.609
5 | KLVQLYVVCTK [BTK_Y461_G462V] | 1.01 | 0.482 | 0.881 | 0.486 | 0.928 | 1.3 | 0.565 | 0.45 | 0.416 | 1.2 | 1.16 | 0.584 | 0.785 | 0.809 | 0.528 | 0.523
6 | KNAEKYAEEDR [HSPA9_Y568] | 0.819 | 0.624 | 0.992 | 0.411 | 0.674 | 1.08 | 0.47 | 0.444 | 0.528 | 0.822 | 1.1 | 0.499 | 0.709 | 0.506 | 0.571 | 0.506
7 | KNEIFYQCPDQ [FBXO3_Y223_V221I] | 0.676 | 0.746 | 0.774 | 0.744 | 6.62 | 2.23 | 0.928 | 2.55 | 0.748 | 1.07 | 1.36 | 4.5 | 1.02 | 0.688 | 0.998 | 1.07
8 | KPSLKYVTFGN [GALNTL5_Y404_G401S_YF] | 0.697 | 0.575 | 0.68 | 0.504 | 0.467 | 0.736 | 0.396 | 0.435 | 0.515 | 0.496 | 0.75 | 0.461 | 0.569 | 0.453 | 0.488 | 0.453
9 | KQQEIYQEVTQ [CD209_Y239_L242V] | 0.785 | 0.513 | 0.929 | 5.15 | 1.94 | 1.26 | 2.56 | 4.06 | 5.17 | 0.765 | 0.942 | 7.32 | 1.96 | 7.2 | 5.41 | 4.5
10 | KRAIGHFSATS [FAM120A_Y327_Y327H_YF] | 0.66 | 0.525 | 0.852 | 0.387 | 0.402 | 0.423 | 0.335 | 0.371 | 0.351 | 0.456 | 0.42 | 0.338 | 0.39 | 0.407 | 0.397 | 0.332

Now from value to sequence, other results behind:

Row | SH2 binding enrichment (SHP2-C SH2) | SH2 binding enrichment (c-Src SH2) | SH2 binding enrichment (Grb2 SH2) | Sequence | phosphorylation enrichment (c-Src) | phosphorylation enrichment (c-Abl (mouse)) | phosphorylation enrichment (AncSZ) | phosphorylation enrichment (FGFR1) | phosphorylation enrichment (MERTK) | phosphorylation enrichment (Fyn) | phosphorylation enrichment (Jak2) | phosphorylation enrichment (Fes) | phosphorylation enrichment (Fer (mouse)) | phosphorylation enrichment (FGFR3) | phosphorylation enrichment (EPHB1) | phosphorylation enrichment (Hck) | phosphorylation enrichment (EPHB2)
11 | 0.542 | 0.419 | 0.783 | KLNNEHLELNF [MME_Y497_Y497H_YF] | 0.454 | 0.805 | 0.88 | 0.462 | 0.405 | 0.453 | 0.813 | 0.921 | 0.423 | 0.662 | 0.514 | 0.464 | 0.466
12 | 0.619 | 0.426 | 1.01 | KMLEKYKEQLN [TLK2_Y259_R262Q] | 0.336 | 0.51 | 0.721 | 0.604 | 0.393 | 0.503 | 0.507 | 0.864 | 0.539 | 0.56 | 0.585 | 0.53 | 0.598
13 | 0.529 | 0.546 | 0.803 | KNCFKYFMSDD [ATRX_Y203_YF] | 0.646 | 1.02 | 1.37 | 0.604 | 0.556 | 0.453 | 1.27 | 1.45 | 0.589 | 0.84 | 0.639 | 0.556 | 0.714
14 | 0.675 | 0.569 | 0.831 | KPLMPSMRFSR [SMARCE1_Y73_Y73S_YF] | 0.543 | 0.737 | 0.828 | 0.396 | 0.459 | 0.424 | 0.685 | 0.876 | 0.35 | 0.463 | 0.392 | 0.413 | 0.399
15 | 0.704 | 0.619 | 1.02 | KQCSDYARELE [MYH3_Y1140_R1137C] | 0.514 | 0.929 | 1.23 | 0.654 | 0.557 | 0.552 | 1.19 | 1.26 | 0.578 | 0.769 | 0.597 | 0.571 | 0.605
16 | 0.645 | 0.629 | 0.968 | KRAAIYNPVIY [RHO_Y301_S297R] | 2.67 | 0.469 | 0.547 | 0.577 | 1.06 | 2.33 | 0.424 | 0.556 | 5.24 | 0.443 | 0.398 | 4.27 | 0.415
